Laboratory results from article PMC9482650, “Quantitative fragmentomics allow affinity mapping of interactomes” (Nature Communications, 2022).

T1: SHANK3, Q9BYB0
T1 sequence (Q9BYB0 641-750, limits assumed, looked up): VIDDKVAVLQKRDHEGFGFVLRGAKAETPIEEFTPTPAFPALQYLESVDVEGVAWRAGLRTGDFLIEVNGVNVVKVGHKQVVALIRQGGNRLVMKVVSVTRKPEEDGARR

T2: MPDZ_2, O75970
T2 sequence (O75970 252-347, limits assumed, looked up): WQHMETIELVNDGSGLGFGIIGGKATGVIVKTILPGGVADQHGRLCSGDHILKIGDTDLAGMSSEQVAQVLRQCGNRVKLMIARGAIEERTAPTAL

T3: PDZD2_6, O15018
T3 sequence (O15018 2745-2839, limits assumed, looked up): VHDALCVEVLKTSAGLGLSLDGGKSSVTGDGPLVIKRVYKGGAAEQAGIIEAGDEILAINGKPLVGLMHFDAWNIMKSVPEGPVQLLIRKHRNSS

T4: USH1C_3, Q9Y6N9
T4 sequence (Q9Y6N9 447-547, limits assumed, looked up): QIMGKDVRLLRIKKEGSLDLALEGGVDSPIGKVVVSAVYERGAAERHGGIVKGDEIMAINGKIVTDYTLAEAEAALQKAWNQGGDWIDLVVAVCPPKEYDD

T5: PDLIM3, Q53GG5
T5 sequence (Q53GG5 1-94, limits assumed, looked up): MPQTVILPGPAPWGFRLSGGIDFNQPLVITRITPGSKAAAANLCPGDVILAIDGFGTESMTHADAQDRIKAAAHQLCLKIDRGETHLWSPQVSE

T6: MPDZ_3, O75970
T6 sequence (O75970 372-473, limits assumed, looked up): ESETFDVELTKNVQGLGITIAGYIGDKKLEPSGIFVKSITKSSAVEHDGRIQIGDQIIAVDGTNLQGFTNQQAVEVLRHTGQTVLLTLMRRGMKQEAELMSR

T7: PDZD7_2, Q9H5P4
T7 sequence (Q9H5P4 205-303, limits assumed, looked up): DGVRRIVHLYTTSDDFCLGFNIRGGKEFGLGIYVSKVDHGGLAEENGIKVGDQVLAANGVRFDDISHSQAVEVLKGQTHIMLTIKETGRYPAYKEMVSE

T8: MAGI2_1, Q86UL8
T8 sequence (Q86UL8 12-111, limits assumed, looked up): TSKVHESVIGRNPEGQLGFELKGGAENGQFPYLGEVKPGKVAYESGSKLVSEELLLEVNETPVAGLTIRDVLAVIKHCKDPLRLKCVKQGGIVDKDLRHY

T9: PDZD2_1, O15018
T9 sequence (O15018 80-192, limits assumed, looked up): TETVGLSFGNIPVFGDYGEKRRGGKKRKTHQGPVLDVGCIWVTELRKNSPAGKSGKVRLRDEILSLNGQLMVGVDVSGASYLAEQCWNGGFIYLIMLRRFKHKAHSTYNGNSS

T10: USH1C_1, Q9Y6N9
T10 sequence (Q9Y6N9 82-179, limits assumed, looked up): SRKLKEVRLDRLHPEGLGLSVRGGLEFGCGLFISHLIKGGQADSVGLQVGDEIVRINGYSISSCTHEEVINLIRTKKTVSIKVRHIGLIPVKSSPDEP

T11: RGS12, O14924
T11 sequence (O14924 17-108, limits assumed, looked up): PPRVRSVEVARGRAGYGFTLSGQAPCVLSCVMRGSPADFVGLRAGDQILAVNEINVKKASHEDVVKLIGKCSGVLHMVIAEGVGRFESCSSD

T12: SHROOM3, Q8TF72
T12 sequence (Q8TF72 20-120, limits assumed, looked up): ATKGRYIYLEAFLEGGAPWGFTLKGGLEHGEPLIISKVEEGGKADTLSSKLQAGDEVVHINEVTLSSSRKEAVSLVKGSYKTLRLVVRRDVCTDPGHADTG

T13: SHROOM4, Q9ULL8
T13 sequence (Q9ULL8 5-102, limits assumed, looked up): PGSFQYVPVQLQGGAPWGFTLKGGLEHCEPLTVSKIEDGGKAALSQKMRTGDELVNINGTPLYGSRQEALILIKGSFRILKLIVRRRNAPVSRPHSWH

T14: PDZD2_5, O15018
T14 sequence (O15018 2617-2716, limits assumed, looked up): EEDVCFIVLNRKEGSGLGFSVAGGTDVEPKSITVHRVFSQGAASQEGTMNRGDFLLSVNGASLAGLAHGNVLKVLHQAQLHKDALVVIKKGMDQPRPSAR

T15: SHROOM2, Q13796
T15 sequence (Q13796 21-118, limits assumed, looked up): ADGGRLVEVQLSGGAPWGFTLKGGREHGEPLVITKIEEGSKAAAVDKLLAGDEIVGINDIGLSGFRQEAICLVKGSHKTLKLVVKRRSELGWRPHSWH

T16: SYNPO2L, Q9H987
T16 sequence (Q9H987 1-98, limits assumed, looked up): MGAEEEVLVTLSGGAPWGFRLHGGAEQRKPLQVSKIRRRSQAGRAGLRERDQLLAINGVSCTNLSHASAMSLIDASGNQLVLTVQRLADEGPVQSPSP


What was measured:
Experiment in all cases: holdup assay
Parameters in all cases: key: below the threshold = too weak to quantify, mostly under pKd 3.1 to 4
[1] = biological target: T1, SHANK3, Q9BYB0
[2] = biological target: T2, MPDZ_2, O75970
[3] = biological target: T3, PDZD2_6, O15018
[4] = biological target: T4, USH1C_3, Q9Y6N9
[5] = biological target: T5, PDLIM3, Q53GG5
[6] = biological target: MAGI3_5, Q5TCQ9
MAGI3_5, Q5TCQ9, sequence (Q5TCQ9 847-941): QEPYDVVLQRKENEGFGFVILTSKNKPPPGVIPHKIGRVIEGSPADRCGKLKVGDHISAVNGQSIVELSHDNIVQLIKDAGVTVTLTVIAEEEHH

[7] = biological target: T6, MPDZ_3, O75970
[8] = biological target: T7, PDZD7_2, Q9H5P4; settings: plain residues with an end cap or a label only (N-terminal biotin on a linker: (peg)3)
[9] = biological target: LNX1_4, Q8TBB1; settings: plain residues with an end cap or a label only (N-terminal biotin on a linker: (peg)3)
LNX1_4, Q8TBB1, sequence (Q8TBB1 631-726): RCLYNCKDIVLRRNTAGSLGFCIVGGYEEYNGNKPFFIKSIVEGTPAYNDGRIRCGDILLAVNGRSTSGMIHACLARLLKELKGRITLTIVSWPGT

[10] = biological target: PDZRN4_2, Q6ZMN7
PDZRN4_2, Q6ZMN7, sequence (Q6ZMN7 389-498): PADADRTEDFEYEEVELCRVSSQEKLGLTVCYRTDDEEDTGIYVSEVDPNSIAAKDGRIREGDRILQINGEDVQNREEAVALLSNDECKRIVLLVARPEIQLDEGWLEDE

[11] = biological target: T8, MAGI2_1, Q86UL8
[12] = biological target: T9, PDZD2_1, O15018
[13] = biological target: T10, USH1C_1, Q9Y6N9
[14] = biological target: T11, RGS12, O14924; settings: plain residues with an end cap or a label only (N-terminal biotin on a linker: (peg)3)
[15] = biological target: T12, SHROOM3, Q8TF72
[16] = biological target: T13, SHROOM4, Q9ULL8
[17] = biological target: T14, PDZD2_5, O15018
[18] = biological target: RIMS1, Q86UR5
RIMS1, Q86UR5, sequence (Q86UR5 584-692): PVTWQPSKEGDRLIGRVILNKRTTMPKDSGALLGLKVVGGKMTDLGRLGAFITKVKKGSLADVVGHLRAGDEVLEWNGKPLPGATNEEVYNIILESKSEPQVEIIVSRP

[19] = biological target: T15, SHROOM2, Q13796
[20] = biological target: T16, SYNPO2L, Q9H987
[21] = plain residues with an end cap or a label only (N-terminal biotin on a linker: (peg)3)
[22] = modified: phospho on T at position -2 from the C-terminal residue

Row | Binder | pKd [1, 21] | pKd [2, 21] | pKd [3, 21] | pKd [4, 21] | pKd [5, 21] | pKd [6, 21] | pKd [7, 21] | pKd [8] | pKd [9] | pKd [10, 21] | pKd [11, 21] | pKd [12, 21] | pKd [13, 21] | pKd [14] | pKd [15, 21] | pKd [16, 21] | pKd [17, 21] | pKd [18, 21] | pKd [19, 21] | pKd [20, 21] | other results
1 | QQSMSSADSTQA [SARS-Cov2-N, P0DTC9] | below the threshold | below the threshold | below the threshold | below the threshold | below the threshold | below the threshold | below the threshold | below the threshold | below the threshold | below the threshold | below the threshold | below the threshold | below the threshold | below the threshold | below the threshold | below the threshold | below the threshold | below the threshold | below the threshold | below the threshold | –
2 | RRRRSQSRESQC [HBV-HBc, P03193] | below the threshold | below the threshold | below the threshold | below the threshold | 4.1 | below the threshold | below the threshold | below the threshold | below the threshold | below the threshold | below the threshold | below the threshold | below the threshold | below the threshold | below the threshold | below the threshold | – | below the threshold | below the threshold | below the threshold | –
3 | SSRTRRETQL [HPV16-E6_-2P, P03126] | – | – | – | – | – | – | – | – | – | – | – | – | – | – | – | – | – | – | – | – | pKd [1, 22]: below the threshold; pKd [2, 22]: below the threshold; pKd [3, 22]: below the threshold; pKd [4, 22]: below the threshold; pKd [5, 22]: below the threshold; pKd [6, 22]: below the threshold; pKd [7, 22]: below the threshold; pKd [10, 22]: 4.26; pKd [11, 22]: below the threshold; pKd [12, 22]: below the threshold; pKd [13, 22]: below the threshold; pKd [15, 22]: below the threshold; pKd [16, 22]: below the threshold; pKd [17, 22]: below the threshold; pKd [18, 22]: below the threshold; pKd [19, 22]: below the threshold; pKd [20, 22]: below the threshold
4 | RYEDTTLVEDTVL [WNV-NS5, Q9Q6P4] | 4.59 | below the threshold | below the threshold | below the threshold | below the threshold | below the threshold | below the threshold | below the threshold | below the threshold | below the threshold | below the threshold | below the threshold | below the threshold | below the threshold | below the threshold | below the threshold | below the threshold | below the threshold | 4.14 | below the threshold | –
